Patent publication US20240294622A1

Target: DAN-his (Sinobiological) (human) (UniProt P41271)
Test: blocking ELISA: coated BMP2, antibody pre-incubated with human DAN-his, anti-his HRP; blocked ligand BMP2; fit value of a flat control curve; unit from the axis Concentration(nM)

Sequence of DAN-his (Sinobiological) (human) (P41271 17-181 limits assumed): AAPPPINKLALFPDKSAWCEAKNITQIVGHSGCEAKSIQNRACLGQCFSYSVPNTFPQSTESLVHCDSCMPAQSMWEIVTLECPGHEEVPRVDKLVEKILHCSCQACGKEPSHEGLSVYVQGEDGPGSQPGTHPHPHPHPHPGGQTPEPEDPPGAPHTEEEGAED

IC50: 24.7 nM
Substance: IgG1 (antibody)
